Reference: PMC11468923, “Mechanism of degrader-targeted protein ubiquitinability” (Science Advances, 2024)
Substitutions are numbered along the chain they refer to. Names may count otherwise. Blank lines part the entries; values can stand above or below the binder they belong to.

Assays:
[1] = molecular target: T1, wild-type ubiquitin (donor ubiquitin, Ub^D) (human, UniProt P0CG48 1-76, C terminus isopeptide-linked to K93 of UBE2R1(C93K, S138C, C191S, C223S)); test: cryo-EM structure; closed cross-linked sample: 6 uM NEDD8-CRL2^VHL (1 equiv), MZ1 (1.5 equiv) and Brd4^BD2-Ub(G76S,K48C)-UBE2R1(C93K, S138C, C191S, C223S)-Ub (1.5 equiv), 10 min at 4 C; 20 mM Hepes, 150 mM NaCl, 0.5 mM TCEP, pH 7.5; Krios 300 keV; ~3.7 A; settings: both partners purified
T1 construct: wild-type ubiquitin, the cut product of its precursor; Stood in the closed cryo-EM sample as part of the cross-linked conjugate m8

[2] = molecular target: T2, ^15N-labeled ubiquitin (human wild-type Ub residues 1 to 76) (human, UniProt P0CG48 1-76, uniformly ^15N-labeled; C terminus isopeptide-linked to K93 of UBE2R1(C93K) in the conjugate sample); test: NMR 15N-1H HSQC chemical shift perturbation; ^15N-Ub free against ^15N-Ub isopeptide-linked to UBE2R1(C93K); 150 uM, 298 K, 600 MHz; 20 mM sodium phosphate, 150 mM NaCl, 0.5 mM TCEP, 5% D2O, pH 7.0; settings: both partners purified
T2 construct: ubiquitin, human wild type, residues 1 to 76; also called ^15N-Ub; Ub(^15N); source: E. coli BL21(DE3) Rosetta II, ^15N autoinducing media, purified (His-Trap, TEV, SEC); not shown: His6, N-terminal, cleaved

binding result [1]: binds
B1: UBE2R1(C93K, S138C, C191S, C223S) (enzyme, human, UniProt P49427 1-236, looked up)
chain: MARPLVPSSQKALLLELKGLQEEPVEGFRVTLVDEGDLYNWEVAIFGPPNTYYEGGYFKARLKFPIDYPYSPPAFRFLTKMWHPNIYETGDVKISILHPPVDDPQSGELPSERWNPTQNVRTILLSVISLLNEPNTFCPANVDASVMYRKWKESKGKDREYTDIIRKQVLGTKVDAERDGVKVPTTLAEYSVKTKAPAPDEGSDLFYDDYYEDGEVEEEADSSFGDDEDDSGTEES
modifications: K93 (C93K) isopeptide-linked to the C terminus of donor ubiquitin; C138 (S138C) cross-linked by BMOE to Ub(K48C,G76S)-Brd4^BD2
notes: UBE2R1 (also known as Cdc34), human, full length; prepared by the same method as UBE2R1(C93K); Stood in the closed cryo-EM sample as part of the cross-linked conjugate m8; also called the E2; source: E. coli BL21(DE3) Rosetta II, purified (His-Trap, ULP1, SEC)

binding result [2]: binds
B2: UBE2R1(C93K) (enzyme, human, UniProt P49427 1-236, looked up)
chain: B1 chain with C138S, S191C, S223C
modifications: K93 (C93K) isopeptide-linked to the C terminus of ^15N-labeled ubiquitin
notes: UBE2R1 (also known as Cdc34), human, full length; also called Cdc34 C93K; the E2; source: E. coli BL21(DE3) Rosetta II, purified (His-Trap, ULP1, SEC)
